Data taken from article PMC3024409, “Protein-Protein Interactions within Late Pre-40S Ribosomes” (PLoS ONE, 2011).

T1: (MBP-)Rio2 (S. cerevisiae, UniProt P40160 1-425)
T1 construct: Rio2, S. cerevisiae; gene amplified from genomic DNA with primers from the start codon to the stop codon, cloned between SfoI and BamHI of pSV272; 93 kDa as printed; source: E. coli Rosetta, purified (Ni column, MonoQ, gel filtration); not shown: His6-MBP, N-terminal, kept
T1 sequence (looked up): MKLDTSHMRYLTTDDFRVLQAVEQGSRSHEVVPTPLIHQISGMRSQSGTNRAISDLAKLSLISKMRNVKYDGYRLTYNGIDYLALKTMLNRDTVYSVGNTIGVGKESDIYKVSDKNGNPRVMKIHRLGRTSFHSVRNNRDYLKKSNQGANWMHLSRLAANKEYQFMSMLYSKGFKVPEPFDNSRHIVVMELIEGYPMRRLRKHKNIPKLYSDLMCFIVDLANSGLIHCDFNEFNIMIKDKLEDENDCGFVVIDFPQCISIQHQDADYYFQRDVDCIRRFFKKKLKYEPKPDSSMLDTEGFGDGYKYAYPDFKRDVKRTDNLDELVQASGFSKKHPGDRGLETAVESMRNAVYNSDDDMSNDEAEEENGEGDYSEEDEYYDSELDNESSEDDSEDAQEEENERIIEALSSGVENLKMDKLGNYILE

T2: (MBP-)Enp1 (S. cerevisiae, UniProt P38333 1-483)
T2 construct: Enp1, S. cerevisiae; gene amplified from genomic DNA, cloned between SfoI and BamHI of pSV272; source: E. coli Rosetta, purified (Ni-NTA, MonoQ, gel filtration); not shown: His6-MBP, N-terminal, kept
T2 sequence (looked up): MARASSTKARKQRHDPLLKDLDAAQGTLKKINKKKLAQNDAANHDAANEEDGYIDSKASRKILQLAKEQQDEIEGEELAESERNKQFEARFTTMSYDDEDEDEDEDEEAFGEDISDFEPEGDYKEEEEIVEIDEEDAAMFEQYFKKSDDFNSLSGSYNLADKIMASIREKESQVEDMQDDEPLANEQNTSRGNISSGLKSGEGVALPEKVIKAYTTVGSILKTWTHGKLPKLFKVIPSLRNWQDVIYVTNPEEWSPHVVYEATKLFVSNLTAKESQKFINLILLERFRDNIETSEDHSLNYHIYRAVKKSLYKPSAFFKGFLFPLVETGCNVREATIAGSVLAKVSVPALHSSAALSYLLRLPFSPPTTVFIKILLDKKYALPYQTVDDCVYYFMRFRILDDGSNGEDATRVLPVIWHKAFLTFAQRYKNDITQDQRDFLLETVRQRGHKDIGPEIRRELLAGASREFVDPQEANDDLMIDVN

T3: Enp1 (untagged) (S. cerevisiae, UniProt P38333 1-483)
T3 construct: Enp1, S. cerevisiae; gene amplified from genomic DNA, cloned between SfoI and BamHI of pSV272; source: E. coli Rosetta, purified (Ni-NTA, TEV cleavage, MonoQ, gel filtration); not shown: His6-MBP, N-terminal, cleaved
T3 sequence (looked up): T2 sequence (looked up)

T4: (MBP-)Tsr1 (S. cerevisiae, UniProt Q07381 1-788)
T4 construct: Tsr1, S. cerevisiae; gene amplified from genomic DNA with primers from the start codon to the stop codon, cloned between SfoI and HindIII of pSV272; source: E. coli Rosetta, purified (Ni-NTA, MonoQ, gel filtration; TEV protease omitted); not shown: His6-MBP, N-terminal, kept
T4 sequence (looked up): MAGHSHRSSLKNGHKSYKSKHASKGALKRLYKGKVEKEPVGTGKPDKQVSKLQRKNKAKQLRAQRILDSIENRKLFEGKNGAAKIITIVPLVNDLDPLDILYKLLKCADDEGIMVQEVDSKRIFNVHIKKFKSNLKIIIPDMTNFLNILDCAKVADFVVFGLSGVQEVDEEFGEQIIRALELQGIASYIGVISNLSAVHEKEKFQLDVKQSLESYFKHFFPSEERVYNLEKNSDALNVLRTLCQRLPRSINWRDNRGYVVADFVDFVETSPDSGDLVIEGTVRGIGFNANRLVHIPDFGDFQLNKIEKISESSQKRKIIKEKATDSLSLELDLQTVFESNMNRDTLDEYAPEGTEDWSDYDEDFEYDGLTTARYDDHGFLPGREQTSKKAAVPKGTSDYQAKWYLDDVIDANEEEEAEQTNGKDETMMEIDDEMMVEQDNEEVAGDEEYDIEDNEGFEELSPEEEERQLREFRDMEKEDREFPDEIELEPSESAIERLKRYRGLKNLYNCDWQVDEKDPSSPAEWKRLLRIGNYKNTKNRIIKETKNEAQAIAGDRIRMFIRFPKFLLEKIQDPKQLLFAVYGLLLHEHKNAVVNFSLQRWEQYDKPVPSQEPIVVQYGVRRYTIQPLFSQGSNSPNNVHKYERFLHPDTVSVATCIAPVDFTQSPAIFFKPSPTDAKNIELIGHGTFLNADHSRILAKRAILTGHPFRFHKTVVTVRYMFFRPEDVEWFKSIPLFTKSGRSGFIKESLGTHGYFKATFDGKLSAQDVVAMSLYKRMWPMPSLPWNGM

B1: (MBP-)Dim1 (enzyme, S. cerevisiae, UniProt P41819 1-318, looked up)
chain: MGKAAKKKYSGATSSKQVSAEKHLSSVFKFNTDLGQHILKNPLVAQGIVDKAQIRPSDVVLEVGPGTGNLTVRILEQAKNVVAVEMDPRMAAELTKRVRGTPVEKKLEIMLGDFMKTELPYFDICISNTPYQISSPLVFKLINQPRPPRVSILMFQREFALRLLARPGDSLYCRLSANVQMWANVTHIMKVGKNNFRPPPQVESSVVRLEIKNPRPQVDYNEWDGLLRIVFVRKNRTISAGFKSTTVMDILEKNYKTFLAMNNEMVDDTKGSMHDVVKEKIDTVLKETDLGDKRAGKCDQNDFLRLLYAFHQVGIHFS
notes: Dim1, S. cerevisiae; gene amplified from genomic DNA with primers from the start codon to the stop codon, cloned between SfoI and HindIII of pSV272; source: E. coli Rosetta, purified (Ni-NTA, MonoS, gel filtration; no TEV protease); not shown: His6-MBP, N-terminal, kept
B2: Dim1 (untagged) (enzyme, S. cerevisiae, UniProt P41819 1-318, looked up)
chain: B1 chain
notes: Dim1, S. cerevisiae; gene amplified from genomic DNA with primers from the start codon to the stop codon, cloned between SfoI and HindIII of pSV272; also called methylase Dim1; source: E. coli Rosetta, purified (Ni-NTA, TEV cleavage, MonoS, gel filtration); not shown: His6-MBP, N-terminal, cleaved
B3: Ltv1 (untagged) (natural protein, S. cerevisiae, UniProt P34078 1-463, looked up)
chain: MSKKFSSKNSQRYVVVHRPHDDPSFYDTDASAHVLVPVSNPNKTSPEADLRKKDVSSTKPKGRRAHVGEAALYGINFDDSEYDYTQHLKPIGLDPENSIFIASKGNEQKVEKKNIEDLFIEPKYRRDEIEKDDALPVFQRGMAKPEYLLHQQDTTDEIRGFKPDMNPALREVLEALEDEAYVVNDDVVVEDISKKTQLQGDNYGEEEKEDDIFAQLLGSGEAKDEDEFEDEFDEWDIDNVENFEDENYVKEMAQFDNIENLEDLENIDYQADVRRFQKDNSILEKHNSDDEFSNAGLDSVNPSEEEDVLGELPSIQDKSKTGKKKRKSRQKKGAMSDVSGFSMSSSAIARTETMTVLDDQYDQIINGYENYEEELEEDEEQNYQPFDMSAERSDFESMLDDFLDNYELESGGRKLAKKDKEIERLKEAADEVSKGKLSQRRNRERQEKKKLEKVTNTLSSLKF
notes: Ltv1, S. cerevisiae; gene amplified from genomic DNA with primers from the start codon to the stop codon, cloned between SfoI and BamHI of pSV272; also called export adaptor Ltv1; source: E. coli Rosetta, purified (Ni-NTA, TEV cleavage, MonoQ, gel filtration); not shown: His6-MBP, N-terminal, cleaved
B4: (MBP-)Ltv1 (natural protein, S. cerevisiae, UniProt P34078 1-463, looked up)
chain: B3 chain
notes: Ltv1, S. cerevisiae; gene amplified from genomic DNA with primers from the start codon to the stop codon, cloned between SfoI and BamHI of pSV272; source: E. coli Rosetta, purified (Ni-NTA, MonoQ, gel filtration; TEV protease omitted); not shown: His6-MBP, N-terminal, kept
B5: Rio2 (untagged) (enzyme, S. cerevisiae, UniProt P40160 1-425, looked up)
chain: T1 sequence (looked up)
notes: Rio2, S. cerevisiae; Cloning into the NheI site of pET23a may leave a few vector residues before the first methionine; also called kinase Rio2; protein kinase Rio2; source: E. coli Rosetta, purified (Hi-Trap Q, MonoQ, gel filtration)
B6: (MBP-)Rps15 (natural protein, S. cerevisiae, UniProt Q01855 2-142, looked up)
chain: SQAVNAKKRVFKTHSYRGVDLEKLLEMSTEDFVKLAPARVRRRFARGMTSKPAGFMKKLRAAKLAAPENEKPAPVRTHMRNMIIVPEMIGSVVGIYNGKAFNQVEIRPEMLGHYLGEFSITYTPVRHGRAGATTSRFIPLK
notes: ribosomal protein Rps15, S. cerevisiae; gene amplified from genomic DNA, cloned between SfoI and HindIII of pSV272; source: E. coli Rosetta, purified (Ni-NTA, MonoQ, gel filtration); not shown: His6-MBP, N-terminal, kept

What was measured:
Assay in all cases: pull-down; 3 µM MBP-tagged bait and 5 µM untagged prey in 50 mM HEPES pH 7.5, 150 mM KCl; 10 min at room temperature, 1 h at 4°C with amylose resin; washed, eluted with 20 mM maltose; SDS-PAGE, Coomassie
Conditions in all cases: both partners purified
[1] = molecular target: B5
[2] = molecular target: T1, (MBP-)Rio2
[3] = molecular target: T2, (MBP-)Enp1
[4] = molecular target: T3, Enp1 (untagged)
[5] = molecular target: T4, (MBP-)Tsr1
[6] = molecular target: B3

B1: binds [1].

B2: binds [2].

B3: binds [3].

B4: binds [4].

B5: binds [5].

B6: binds [6]; binds [1].
